Results as given in US20230212587A1, “Mutant Hydroxyphenylpyruvate Dioxygenase Polypeptide, Encoding Gene Thereof and Use Therefor” (Beijing Dabeinong Biotechnology Co., Ltd., priority 2019, published 2023).

System: Arabidopsis thaliana T1 plants
Assay: Topramezone tolerance of transgenic Arabidopsis thaliana T1 plants (pesticide damage grade by bleached leaf area, score, resistance evaluation)
Assay type: in vivo
Conditions: HPPDs from different species, 7 DAT; for Classification and statistics of pesticide damage grade Grade 0 / Classification and statistics of pesticide damage grade Grade 1 / Classification and statistics of pesticide damage grade Grade 2 / Classification and statistics of pesticide damage grade Grade 3: number of plants (of 16) in this grade; for Scores: score for pesticide damage 0-100
Procedure, shortened: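 Eighteen days after sowing, wild-type and HPPD-transgenic T1 Arabidopsis receive a topramezone spray at 1×, 2× or 4× field rate (25–100 g ai/ha) or water. Seven days later each plant is graded by its proportion of bleached leaf area.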

Row | Molecule | Classification and statistics of pesticide damage grade Grade 0 (topramezone 25 g ai/ha (1x)) | Classification and statistics of pesticide damage grade Grade 1 (topramezone 25 g ai/ha (1x)) | Classification and statistics of pesticide damage grade Grade 2 (topramezone 25 g ai/ha (1x)) | Classification and statistics of pesticide damage grade Grade 3 (topramezone 25 g ai/ha (1x)) | Classification and statistics of pesticide damage grade Grade 0 (topramezone 100 g ai/ha (4x)) | Classification and statistics of pesticide damage grade Grade 1 (topramezone 100 g ai/ha (4x)) | Classification and statistics of pesticide damage grade Grade 2 (topramezone 100 g ai/ha (4x)) | Classification and statistics of pesticide damage grade Grade 3 (topramezone 100 g ai/ha (4x)) | Scores (topramezone 25 g ai/ha (1x)) | Scores (topramezone 100 g ai/ha (4x)) | Resistance evaluation (topramezone 25 g ai/ha (1x)) | Resistance evaluation (topramezone 100 g ai/ha (4x))
1 | HvHPPD-02: native Hordeum vulgare HPPD, SEQ ID NO: 51 (protein, Hordeum vulgare; HvHPPD Amino Acid Sequence) MPPTPTTPAATGAAAAVTPEHARPHRMVRFNPRSDRFHTLSFHHVEFWCADAASAAGRFAFALGAPLAARSDLSTGNSAHASQLLRSGSLAFLFTAPYANGCDAATASLPSFSADAARRFSADHGIAVRSVALRVADAAEAFRASRRRGARPAFAPVDLGRGFAFAEVELYGDVVLRFVSHPDGTDVPFLPGFEGVTNPDAVDYGLTRFDHVVGNVPELAPAAAYIAGFTGFHEFAEFTAEDVGTTESGLNSVVLANNSEGVLLPLNEPVHGTKRRSQIQTFLEHHGGPGVQHIAVASSDVLRTLRKMRARSAMGGFDFLPPPLPKYYEGVRRLAGDVLSEAQIKECQELGVLVDRDDQGVLLQIFTKPVGDRPTLFLEMIQRIGCMEKDERGEEYQKGGCGGFGKGNFSELFKSIEDYEKSLEAKQSAAVQGS | 0 | 0 | 0 | 16 | 0 | 0 | 0 | 16 | 100 | 100 | non-resistant (non-resistant plants (scores 68-100)) | non-resistant (non-resistant plants (scores 68-100))
2 | HvHPPDm-F372A-02: Hordeum vulgare HPPD mutant F372A, SEQ ID NO: 54 (protein, HvHPPDm-F372A Amino Acid Sequence) MPPTPTTPAATGAAAAVTPEHARPHRMVRFNPRSDRFHTLSFHHVEFWCADAASAAGRFAFALGAPLAARSDLSTGNSAHASQLLRSGSLAFLFTAPYANGCDAATASLPSFSADAARRFSADHGIAVRSVALRVADAAEAFRASRRRGARPAFAPVDLGRGFAFAEVELYGDVVLRFVSHPDGTDVPFLPGFEGVTNPDAVDYGLTRFDHVVGNVPELAPAAAYIAGFTGFHEFAEFTAEDVGTTESGLNSVVLANNSEGVLLPLNEPVHGTKRRSQIQTFLEHHGGPGVQHIAVASSDVLRTLRKMRARSAMGGFDFLPPPLPKYYEGVRRLAGDVLSEAQIKECQELGVLVDRDDQGVLLQIATKPVGDRPTLFLEMIQRIGCMEKDERGEEYQKGGCGGFGKGNFSELFKSIEDYEKSLEAKQSAAVQGS | 15 | 1 | 0 | 0 | 8 | 8 | 0 | 0 | 2 | 17 | highly resistant (highly resistant plants (scores 0-15)) | moderately resistant (moderately resistant plants (scores 16-33))
3 | SiHPPD-02: native Setaria italica HPPD, SEQ ID NO: 57 (protein, listed as Setaria italica, SiHPPD Amino Acid Sequence) MPPTPTPAAAAPGAAAAPAAGDQAAFRLVGHRGFVRVNPRSDRFHTLSFHHVELWCADATSAAGRFSFGLGAPLAARSDLSTGNSAHASLLLRSGSLAFLFTAPYAHGVDAATASLPSFSAPAARSFAADHGLAVRAIGLRVADAEDAFRASVAAGARPAFKPVELGLGFRLAEVELYGDVVLRYVSYPDAEDAPFLPGFENVNNPGALNYGLRRFDHIVGNVPELAPVAAYVAGFTGFHEFAEFTAEDVGTAESGLNSMVLANNSETVLIPLNEPVHGTKRRSQIQTFLDHNGGPGVQHIALASDDVLRTLREMQARSAMGGFEFMAAPPPDYYEGVRRRAGDVLSEAQIKECQELGVLVDRDDQGVLLQIFTKPVGDRQTLFLEIIQRIGCMEKDEQGQEYQKGGCGGFGKGNFSQLFKSIEDYEKSLESKQAAAVQGS | 0 | 0 | 0 | 16 | 0 | 0 | 0 | 16 | 100 | 100 | non-resistant (non-resistant plants (scores 68-100)) | non-resistant (non-resistant plants (scores 68-100))
4 | SiHPPDm-F372A-02: Setaria italica HPPD mutant F372A, SEQ ID NO: 60 (protein, SiHPPDm-F372A Amino Acid Sequence) MPPTPTPAAAAPGAAAAPAAGDQAAFRLVGHRGFVRVNPRSDRFHTLSFHHVELWCADATSAAGRFSFGLGAPLAARSDLSTGNSAHASLLLRSGSLAFLFTAPYAHGVDAATASLPSFSAPAARSFAADHGLAVRAIGLRVADAEDAFRASVAAGARPAFKPVELGLGFRLAEVELYGDVVLRYVSYPDAEDAPFLPGFENVNNPGALNYGLRRFDHIVGNVPELAPVAAYVAGFTGFHEFAEFTAEDVGTAESGLNSMVLANNSETVLIPLNEPVHGTKRRSQIQTFLDHNGGPGVQHIALASDDVLRTLREMQARSAMGGFEFMAAPPPDYYEGVRRRAGDVLSEAQIKECQELGVLVDRDDQGVLLQIATKPVGDRQTLFLEIIQRIGCMEKDEQGQEYQKGGCGGFGKGNFSQLFKSIEDYEKSLESKQAAAVQGS | 13 | 2 | 1 | 0 | 6 | 8 | 2 | 0 | 8 | 25 | highly resistant (highly resistant plants (scores 0-15)) | moderately resistant (moderately resistant plants (scores 16-33))
